For data set [1], the target named is T1, ArcR-His6 (Staphylococcus aureus TZ0912) (UniProt Q2FUY1).
T1 sequence: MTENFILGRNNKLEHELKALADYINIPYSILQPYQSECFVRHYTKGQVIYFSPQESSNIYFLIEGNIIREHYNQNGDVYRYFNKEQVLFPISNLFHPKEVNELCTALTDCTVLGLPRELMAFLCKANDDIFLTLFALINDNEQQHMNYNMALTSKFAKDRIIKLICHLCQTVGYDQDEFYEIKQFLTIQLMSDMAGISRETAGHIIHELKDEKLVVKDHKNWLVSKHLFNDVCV
The data set can be described thus: EMSA. As to conditions: EMSA: 750 mM NaCl, 50 mM Tris-HCl pH 7.4, 0.5 mM DTT, 0.5 mM EDTA (as printed for binding buffer), 20 ng probe in 20 uL, 30 min 37 C; 6% gel, 0.5x TBE. (In EMSA bound probe runs differently from free probe, usually more slowly.)

Data set [2] has as its target T2, ArcR-His6 (Staphylococcus aureus TZ0912, UniProt Q2FUY1 1-234).
T2 sequence: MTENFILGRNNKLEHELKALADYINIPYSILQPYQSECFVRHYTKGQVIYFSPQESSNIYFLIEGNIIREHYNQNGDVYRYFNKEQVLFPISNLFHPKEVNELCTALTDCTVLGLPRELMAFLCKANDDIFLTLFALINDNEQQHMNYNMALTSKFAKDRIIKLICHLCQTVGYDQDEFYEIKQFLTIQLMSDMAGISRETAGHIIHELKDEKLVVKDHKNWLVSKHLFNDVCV
Description: EMSA; EMSA: 750 mM NaCl, 50 mM Tris-HCl pH 7.4, 0.5 mM DTT, 0.5 mM EDTA (as printed for binding buffer), 20 ng probe in 20 uL, 30 min 37 C; 6% gel, 0.5x TBE. The conditions noted are these: protein: recombinant; tags: His6 (pET28a NdeI/XhoI); chain copies: 2; label: 5'-FAM; blunt.

The target of a further data set is T3, AgrA-His6 (Staphylococcus aureus TZ0912, UniProt Q5HEG2 1-238).
T3 sequence: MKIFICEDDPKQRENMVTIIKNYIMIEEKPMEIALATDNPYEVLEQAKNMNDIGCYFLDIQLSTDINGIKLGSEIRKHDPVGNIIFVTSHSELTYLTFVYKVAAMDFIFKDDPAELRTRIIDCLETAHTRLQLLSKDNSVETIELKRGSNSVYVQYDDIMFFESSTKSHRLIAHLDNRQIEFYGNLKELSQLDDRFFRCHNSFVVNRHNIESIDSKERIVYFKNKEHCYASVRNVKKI
The data set can be described thus: EMSA; shift from 0.25 uM; EMSA: 750 mM NaCl, 50 mM Tris-HCl pH 7.4, 0.5 mM DTT, 0.5 mM EDTA (as printed for binding buffer), 20 ng probe in 20 uL, 30 min 37 C; 6% gel, 0.5x TBE. The conditions noted are these: protein: recombinant; tags: His6 (pET28a NdeI/XhoI); chain copies: 2; label: 5'-FAM; blunt.

In data set [3] the target is T2, ArcR-His6. The data set can be described thus: EMSA; 7.2 uM; EMSA: 750 mM NaCl, 50 mM Tris-HCl pH 7.4, 0.5 mM DTT, 0.5 mM EDTA (as printed for binding buffer), 20 ng probe in 20 uL, 30 min 37 C; 6% gel, 0.5x TBE. The conditions noted are these: protein: recombinant; tags: His6 (pET28a NdeI/XhoI); chain copies: 2; label: 5'-FAM; blunt.

Consider “CATATATAATAAGTATTTAATTTTAATATATTTAAACTAATAATAATCAAATATACACTATTAACTGAAGATTTCATTGACTTGACATTTATTAAACTTT (double strand) [Pcrispr1-276-177]”, for which the binding result in data set [1] is “no binding”.

With “GGGAGAACTAGAGATAGAATTTGGAAAAAGATTGTTGTAAATAAAATTATTAATCAATCAAAATGTTTAGAAAACAATTTACATAATGAGAATGTGAAGTTAT (double strand) [Pcas-222-123 (Table S2: -241-142)]”, the binding entry in data set [1] is “no binding”.

As to “ATATAGTAGCATGGTGTTAGTTGTCACAGTTTTTGACAGCCAAAATAACACTTGAACCTTTGTGGTTATGCTATTTATTAAAGTATCT (double strand) [Pcrispr1+25+112]”, in data set [1], the binding result is reported as “no binding”.

B1: Pcas-133-118 (Table S2: -152-137) (dsDNA)
DNA 1: TGTGAAGTTATTAGTA
DNA 2: TACTAATAACTTCACA
Turning to B1, the binding result in the data set with ArcR-His6 [2] is “no binding”.

B2: Pcrispr1+4+20 (dsDNA)
DNA 1: TGTCAAAAAAAGTGACA
DNA 2: TGTCACTTTTTTTGACA
On to B2, for which the binding result with ArcR-His6 [2] is recorded as “no binding”.

B3: agr P2 promoter (dsDNA)
DNA 1: TACATTTAACAGTTAAGTATTTATTTCCTACAGTTAGGCAATATAATG
DNA 2: CATTATATTGCCTAACTGTAGGAAATAAATACTTAACTGTTAAATGTA
As for B3, the binding result with AgrA-His6 was “binds”.

B4: Pcrispr1-26+24 (dsDNA)
DNA 1: CTTAATATATAGAAAATTATCATAATATTTGTCAAAAAAAGTGACATTTC
DNA 2: GAAATGTCACTTTTTTTGACAAATATTATGATAATTTTCTATATATTAAG
In the case of B4, in the data set with ArcR-His6 [3], the binding result is reported as “binds”.

B5: Pcas-142-103 (Table S2: -161-122) (dsDNA)
DNA 1: TAATGAGAATGTGAAGTTATTAGTAAACTTAGCAAAAGAT
DNA 2: ATCTTTTGCTAAGTTTACTAATAACTTCACATTCTCATTA
Turning to B5, the binding result with ArcR-His6 [3] is given as “binds”.

B6: Pcas-132-113 (Table S2: -151-132) (dsDNA)
DNA 1: GTGAAGTTATTAGTAAACTT
DNA 2: AAGTTTACTAATAACTTCAC
As to B6, in the data set with ArcR-His6 [3], the binding result is “no binding”.

B7: Pcas-137-108 (Table S2: -156-127) (dsDNA)
DNA 1: AGAATGTGAAGTTATTAGTAAACTTAGCAA
DNA 2: TTGCTAAGTTTACTAATAACTTCACATTCT
For B7, in the data set with ArcR-His6 [3], the binding result was “binds”.

(Values after publication PMC12462963, “Quorum Sensing Inhibits Type III‐A CRISPR‐Cas System Activity Through Repressing Positive Regulators SarA and ArcR in Staphylococcus Aureus”.)
